Test results as given in the supplement of paper PMC6757056.
± gives the standard deviation of the averaged measurements.

B1: library; a variant is named by its letters at N, in order (parent)
chain: GCUGUCACCGGAAUACCAGCAUCGUCUUGAUGCCCUUGGAAGUCCGGUCUGAUGAGUCCNNNNNGGACGAAACAGC

Tests used:
[1] = variants of: B1; test: FACS-Seq fitted mean relative fluorescence mCherry/BFP without ligand (log10 relative fluorescence); higher = higher reporter protein expression; conditions: HEK293T, ligand present: no
Procedure, shortened: (§1)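 HEK293T libraries were made by lentiviral transduction with a ribozyme-switch mCherry reporter and an EF1α-BFP marker, enriched, and incubated with or without ligand for 48 h. Cells were sorted into 6 mCherry/BFP bins, and each bin's genomic DNA was PCR-amplified, barcoded and run on MiSeq. Fluorescence was derived by normal fitting of the bin counts. The fitted log10(mCherry/BFP) mean was scaled to five spiked-in control ribozymes.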

[2] = variants of: B1; test: normalized RNA/DNA level with ligand (relative to sTRSVctl = 100) (log10 (% of sTRSVctl)); higher = less ribozyme self-cleavage, higher mRNA level; conditions: ligand concentration (+) RNA-Seq: 5 mM, HEK293T, reporter: mCherry (pCS4076), ligand present: yes
Procedure, shortened: (§2)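 Ribozyme switch library plasmids with mCherry reporters (eGFP in certain ligand experiments) went into HEK293T cells at 4 µg per 6-well well. Where ligand was used, it was applied 1 h before transfection, and total RNA was extracted with EDTA 72 h later for reverse transcription, amplification, barcoding and sequencing. RNA level is the RNA-to-DNA read ratio normalized to a spiked-in non-cleaving sequence or to the leading sequences, then scaled and log-transformed. Scaling was ×100 with log10, the leading set comprised 25 sequences, and the cutoff was ≥100 DNA reads.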

[3] = variants of: B1; test: normalized RNA/DNA level without ligand (relative to sTRSVctl = 100) (log10 (% of sTRSVctl)); higher = less ribozyme self-cleavage, higher mRNA level; conditions: HEK293T, reporter: mCherry (pCS4076), ligand present: no
Procedure, shortened: as §2

[4] = variants of: B1; test: FACS-Seq fitted mean relative fluorescence mCherry/BFP with ligand (log10 relative fluorescence); ligand concentration (+) FACS-Seq: 1 mM; higher = higher reporter protein expression; conditions: HEK293T, ligand present: yes
Procedure, shortened: as §1

Variant	FACS-Seq fitted mean (log10) [1]	normalized RNA/DNA level with ligand (log10) [2]	normalized RNA/DNA level without ligand (log10) [3]	FACS-Seq fitted mean (log10) [4]
CGAGU	0.892 ± 0.093	1.992 ± 0.01	1.9 ± 0.02	0.873 ± 0.12
UUAGC	0.886 ± 0.052	1.97 ± 0.029	1.94 ± 0.042	0.916 ± 0.035
CGCAU	0.678 ± 0.078	1.99 ± 0.018	1.68 ± 0.14	0.776 ± 0.017
CGCAA	0.17 ± 0.043	1.888 ± 0.006	1.49 ± 0.074	0.271 ± 0.06
CGCAC	0.436 ± 0.065	2.01 ± 0.17	1.9 ± 0.14	0.521 ± 0.017
AUCAA	1.02 ± 0.047	1.95 ± 0.084	1.68 ± 0.12	1.15 ± 0.083
AUCAC	0.845 ± 0.16	1.98 ± 0.022	1.96 ± 0.068	0.786 ± 0.039
CUCAC	1.14 ± 0.019	2.02 ± 0.075	2.02 ± 0.13	1.12 ± 0.075
CUCAA	0.816 ± 0.072	1.99 ± 0.05	1.67 ± 0.022	0.914 ± 0.068
CUCAU	1.03 ± 0.12	1.973 ± 0.0058	1.85 ± 0.06	1.07 ± 0.03
AGUGG	0.488 ± 0.2	1.98 ± 0.064	1.84 ± 0.036	0.504 ± 0.026
AGUGA	0.239 ± 0.055	2 ± 0.0061	1.38 ± 0.17	0.535 ± 0.0085
AGUGC	0.289 ± 0.03	2.01 ± 0.0061	1.87 ± 0.071	0.297 ± 0.058
AGUUC	0.981 ± 0.011	2 ± 0.034	1.89 ± 0.049	1.02 ± 0.049
AGUUA	0.892 ± 0.082	1.87 ± 0.14	1.68 ± 0.039	1.035 ± 0.0042
AUAUA	-0.278 ± 0.26	2.006 ± 0.015	1.75 ± 0.028	0.0109 ± 0.01
AUAUC	0.978 ± 0.081	1.912 ± 0.018	1.94 ± 0.048	1.06 ± 0.012
AUAUU	0.891 ± 0.015	2.05 ± 0.067	1.91 ± 0.024	0.928 ± 0.12
AUAUG	0.794 ± 0.14	1.99 ± 0.045	1.8 ± 0.087	0.981 ± 0.043
UGCUU	0.84 ± 0.14	1.99 ± 0.079	1.95 ± 0.054	0.851 ± 0.037
UGUAC	0.923 ± 0.082	1.98 ± 0.024	1.95 ± 0.045	0.851 ± 0.13
UGUCU	0.747 ± 0.19	2.02 ± 0.035	1.988 ± 0.0094	0.783 ± 0.043
CUCCC	0.836 ± 0.04	2.05 ± 0.12	2 ± 0.14	0.811 ± 0.012
CUCCA	1.01 ± 0.29	2.03 ± 0.048	1.87 ± 0.038	0.946 ± 0.15

Variant	FACS-Seq fitted mean (log10) [1]	normalized RNA/DNA level with ligand (log10) [2]	normalized RNA/DNA level without ligand (log10) [3]	FACS-Seq fitted mean (log10) [4]
GUAUU	0.754 ± 0.04	2.01 ± 0.053	1.88 ± 0.046	0.8044 ± 0.005
CUAUC	1.23 ± 0.19	1.89 ± 0.059	1.93 ± 0.073	1.16 ± 0.078
CUAUU	0.965 ± 0.18	2.03 ± 0.023	1.85 ± 0.1	0.924 ± 0.012
CUAUA	0.141 ± 0.018	1.972 ± 0.0076	1.61 ± 0.08	0.384 ± 0.024
CGUAA	0.083 ± 0.047	2.04 ± 0.029	1.303 ± 0.0043	0.767 ± 0.036
CGUAU	0.177 ± 0.0091	2 ± 0.05	1.54 ± 0.11	0.491 ± 0.0065
CGUAC	0.651 ± 0.027	1.92 ± 0.093	1.75 ± 0.062	0.792 ± 0.044
AGCAA	0.327 ± 0.12	1.94 ± 0.035	1.46 ± 0.09	0.627 ± 0.067
AGCAG	0.801 ± 0.041	2.03 ± 0.12	1.81 ± 0.027	0.944 ± 0.048
AGCAC	0.712 ± 0.13	2.08 ± 0.088	1.91 ± 0.12	0.669 ± 0.012
AUAAC	0.876 ± 0.022	2.05 ± 0.13	1.96 ± 0.15	0.881 ± 0.11
AUAAG	0.547 ± 0.16	1.97 ± 0.17	1.79 ± 0.082	0.578 ± 0.014
AUAAU	0.702 ± 0.0096	2.002 ± 0.012	1.79 ± 0.079	0.703 ± 0.064
AUAAA	0.196 ± 0.0089	1.99 ± 0.037	1.4 ± 0.12	0.487 ± 0.033
CUAAU	0.912 ± 0.092	2.02 ± 0.015	1.7874 ± 0.001	0.979 ± 0.014
CUAAA	0.216 ± 0.045	2.02 ± 0.035	1.5 ± 0.14	0.454 ± 0.068
CUAAC	1.02 ± 0.018	1.94 ± 0.028	1.85 ± 0.019	0.893 ± 0.18
AGGCU	0.7841 ± 0.0051	1.96 ± 0.053	1.936 ± 0.007	0.847 ± 0.013
AGGCA	0.779 ± 0.085	1.99 ± 0.039	1.79 ± 0.057	0.896 ± 0.1
AGCCA	0.758 ± 0.027	1.98 ± 0.038	1.857 ± 0.0057	0.919 ± 0.027
AGCCU	0.951 ± 0.011	1.98 ± 0.023	1.91 ± 0.11	1.06 ± 0.071
AGCCG	0.757 ± 0.026	1.99 ± 0.14	1.93 ± 0.11	0.782 ± 0.054
AGGUC	0.52 ± 0.032	1.95 ± 0.15	1.872 ± 0.016	0.587 ± 0.049
AGGUA	0.987 ± 0.032	1.979 ± 0.0062	1.66 ± 0.04	1.26 ± 0.14

Variant	FACS-Seq fitted mean (log10) [1]	normalized RNA/DNA level with ligand (log10) [2]	normalized RNA/DNA level without ligand (log10) [3]	FACS-Seq fitted mean (log10) [4]
UGGAU	0.442 ± 0.064	2 ± 0.12	1.79 ± 0.056	0.624 ± 0.073
UGGAC	0.19 ± 0.013	2 ± 0.049	1.93 ± 0.056	0.236 ± 0.01
CUAGA	0.973 ± 0.064	1.96 ± 0.084	1.83 ± 0.04	0.9812 ± 0.0091
UGGGA	-0.00768 ± 0.057	2.02 ± 0.07	1.6195 ± 0.0012	0.178 ± 0.054
GUAAU	0.914 ± 0.062	1.937 ± 0.015	1.82 ± 0.085	0.966 ± 0.16
GUAAA	0.745 ± 0.13	1.982 ± 0.016	1.7 ± 0.045	0.936 ± 0.11
UGUGC	0.71 ± 0.038	2.04 ± 0.047	1.93 ± 0.086	0.652 ± 0.0049
UGUGU	0.525 ± 0.032	1.88 ± 0.044	1.87 ± 0.15	0.589 ± 0.048
UGUGA	0.563 ± 0.0013	2.05 ± 0.037	1.54 ± 0.11	0.837 ± 0.034
CGUCC	0.784 ± 0.02	2.01 ± 0.086	2 ± 0.044	0.87 ± 0.021
CGGCC	0.745 ± 0.024	2.06 ± 0.1	2.03 ± 0.1	0.6421 ± 0.002
CGGCA	0.507 ± 0.017	1.96 ± 0.046	1.485 ± 0.0076	0.7564 ± 0.0075
CGGAC	0.877 ± 0.081	1.93 ± 0.024	1.8 ± 0.087	0.793 ± 0.037
CGGAU	0.215 ± 0.064	2 ± 0.11	1.65 ± 0.11	0.522 ± 0.046
CGGAA	-0.0214 ± 0.074	1.9 ± 0.055	1.25 ± 0.17	0.354 ± 0.0054
AGCGA	0.281 ± 0.033	1.99 ± 0.025	1.68 ± 0.058	0.503 ± 0.017
AGCGU	-0.0881 ± 0.074	2.01 ± 0.027	1.82 ± 0.055	0.017 ± 0.14
AGCGC	0.459 ± 0.1	2.058 ± 0.016	1.98 ± 0.047	0.52 ± 0.18
CGGGC	0.725 ± 0.09	1.94 ± 0.065	2.01 ± 0.0021	0.717 ± 0.016
CGGGA	0.508 ± 0.043	2.01 ± 0.033	1.74 ± 0.071	0.753 ± 0.077
GUAGA	0.949 ± 0.15	1.8 ± 0.057	1.66 ± 0.14	0.935 ± 0.15
CGCGA	0.995 ± 0.15	1.97 ± 0.12	1.767 ± 0.014	0.923 ± 0.055
CGCGU	0.348 ± 0.12	1.91 ± 0.11	1.842 ± 0.0033	0.441 ± 0.23
